# Target: purified human platelet αIIbβ3 integrin (human, UniProt P05106 27-788)
# Experiment: 2D off-rate, biomembrane force probe adhesion frequency
row,Binder,koff
1,human fibrinogen (ligand) chain 1: GPRVVERHQSACKDSDWPFCSDEDWNYKCPSGCRMKGLIDEVNQDFTNRINKLKNSLFEYQKNNKDSHSLTTNIMEILRGDFSSANNRDNTYNRVSEDLRSRIEVLKRKVIEKVQHIQLLQKNVRAQLVDMKRLEVDIDIKIRSCRGSCSRALAREVDLKDYEDQQKQLEQVIAKDLLPSRDRQHLPLIKMKPVPDLVPGNFKSQLQKVPPEWKALTDMPQMRMELERPGGNEITRGGSTSYGTGSETESPRNPSSAGSWNSGSSGPGSTGNRNPGSSGTGGTATWKPGSSGPGSTGSWNSGSSGTGSTGNQNPGSPRPGSTGTWNPGSSERGSAGHWTSESSVSGSTGQWHSESGSFRPDSPGSGNARPNNPDWGTFEEVSGNVSPGTRREYHTEKLVTSKGDKELRTGKEKVTSGSTTTTRRSCSKTVTKTVIGPDGHKEVTKEVVTSEDGSDCPEAMDLGTLSGIGTLDGFRHRHPDEAAFFDTASTGKTFPGFFSPMLGEFVSETESRGSESGIFTNTKESSSHHPGIAEFPSRGKSSSYSKQFTSSTSYNRGDSTFESKSYKMADEAGSEADHEGTHSTKRGHAKSRPVRDCDDVLQTHPSGTQSGIFNIKLPGSSKIFSVYCDQETSLGGWLLIQQRMDGSLNFNRTWQDYKRGFGSLNDEGEGEFWLGNDYLHLLTQRGSVLRVELEDWAGNEAYAEYHFRVGSEAEGYALQVSSYEGTAGDALIEGSVEEGAEYTSHNNMQFSTFDRDADQWEENCAEVYGGGWWYNNCQAANLNGIYYPGGSYDPRNNSPYEIENGVVWVSFRGADYSLRAVRMKIRPLVTQ chain 2: GHRPLDKKREEAPSLRPAPPPISGGGYRARPAKAAATQKKVERKAPDAGGCLHADPDLGVLCPTGCQLQEALLQQERPIRNSVDELNNNVEAVSQTSSSSFQYMYLLKDLWQKRQKQVKDNENVVNEYSSELEKHQLYIDETVNSNIPTNLRVLRSILENLRSKIQKLESDVSAQMEYCRTPCTVSCNIPVVSGKECEEIIRKGGETSEMYLIQPDSSVKPYRVYCDMNTENGGWTVIQNRQDGSVDFGRKWDPYKQGFGNVATNTDGKNYCGLPGEYWLGNDKISQLTRMGPTELLIEMEDWKGDKVKAHYGGFTVQNEANKYQISVNKYRGTAGNALMDGASQLMGENRTMTIHNGMFFSTYDRDNDGWLTSDPRKQCSKEDGGGWWYNRCHAANPNGRYYWGGQYTWDMAKHGTDDGVVWMNWKGSWYSMRKMSMKIRPFFPQQ chain 3: YVATRDNCCILDERFGSYCPTTCGIADFLSTYQTKVDKDLQSLEDILHQVENKTSEVKQLIKAIQLTYNPDESSKPNMIDAATLKSRKMLEEIMKYEASILTHDSSIRYLQEIYNSNNQKIVNLKEKVAQLEAQCQEPCKDTVQIHDITGKDCQDIANKGAKQSGLYFIKPLKANQQFLVYCEIDGSGNGWTVFQKRLDGSVDFKKNWIQYKEGFGHLSPTGTTEFWLGNEKIHLISTQSAIPYALRVELEDWNGRTSTADYAMFKVGPEADKYRLTYAYFAGGDAGDAFDGFDFGDDPSDKFFTSHNGMQFSTWDNDNDKFEGNCAEQDGSGWWMNKCHAGHLNGVYYQGGTYSKASTPNGYDNGIIWATWKTRWYSMKKTTMKIIPFNRLTIGEGQQHHLGGAKQVRPEHPAETEYDSLYPEDDL,8.41 s⁻¹
2,"C-terminal biotinylated recombinant human apoA-IV (apoA-IV-GGC) (ligand, maleimide-PEG2-biotin on the C-terminal cysteine of the GlyGlyCys linker) EVSADQVATVMWDYFSQLSNNAKEAVEHLQKSELTQQLNALFQDKLGEVNTYAGDLQKKLVPFATELHERLAKDSEKLKEEIGKELEELRARLLPHANEVSQKIGDNLRELQQRLEPYADQLRTQVSTQAEQLRRQLTPYAQRMERVLRENADSLQASLRPHADELKAKIDQNVEELKGRLTPYADEFKVKIDQTVEELRRSLAPYAQDTQEKLNHQLEGLTFQMKKNAEELKARISASAEELRQRLAPLAEDVRGNLRGNTEGLQKSLAELGGHLDQQVEEFRRRVEPYGENFNKALVQQMEQLRQKLGPHAGDVEGHLSFLEKDLRDKVNSFFSTFKEKESQDKTLSLPELEQQQEQQQEQQQEQVQMLAPLESGGC",7.85 s⁻¹
